{"source": "patent US20110289632", "proteins": {"B1": {"name": "ShMKS1 (methylketone synthase 1 from Solanum habrochaites f glabratum), recombinant, His-tagged (protein)", "chain": "MEKSMSPFVKKHFVLVHTAFHGAWCWYKIVALMRSSGHNVTALDLGASGINPKQALQIPNFSDYLSPLMEFMASLPANEKIILVGHALGGLAISKAMETFPEKISVAVFLSGLMPGPNIDATTVCTKAGSAVLGQLDNCVTYENGPTNPPTTLIAGPKFLATNVYHLSPIEDLALATALVRPLYLYLAEDISKEVVLSSKRYGSVKRVFIVATENDALKKEFLKLMIEKNPPDEVKEIEGSDHVTMMSKPQQLFTTLLSIANKYK"}}, "biological_target": "3-ketomyristoyl-ACP (enzymatically prepared from ShACP)", "data": [{"protein": "B1", "values": [{"measurement": "amount of 2-tridecanone formed (in vitro thioesterase activity assay, direct hexane extraction, GC-MS)", "result": "slightly higher, but not significantly so (t test, p=0.062, α=0.05), than the amount found in the buffer-incubated sample treated with acid and heat"}]}]}
